Measured values published in US6579848B1, “Depigmenting activity of agouti signal protein and peptides thereof” (The United States of America as represented by the …, priority 1995, dated 2003).

What was measured:
Format in all cases: cell-based, murine
[1] = test system: tyrosinase; experiment: Northern blotting of tyrosinase RNA in melan-a cells; settings: for RNA level of tyrosinase: 5 days
Method: These techniques were performed as described previously (Aroca et al., 1993). Briefly, 2.0 μg of mRNA, isolated using a total RNA isolation kit and mRNA purification kit (Promega, Madison, Wis.), were electrophoresed and then blotted to Sure-Blot nylon membranes (Oncor, Gaithersburg, Md.), hybridized with ^32P-labeled probes, dehybridized and rehybridized with other probes again as necessary. TYRS-J, the probe specific for tyrosinase, was kindly provided by Drs. H. Yamamoto and T. Takeuchi, Sendai, Japan and is described in Yamamoto et al Japan J. Genetics Vol 62:271-274, 1987. pMT4, specific for TRP1, was provided by Dr. S. Shibahara, Sendai, Japan and is described in Shibahara, S. et al Nucleic Acid Res. Vol 14:2413-2427, 1986. TRP2a, specific for TRP2 was provided by Dr. I. Jackson, Edinburgh, Scotland and is described in Jackson, I et al. EMBO Vol 11:527-535, 1992. gp100, specific for silver, was provided by Dr. Y. Kawakami, Bethesda, Md. and is described in Kawakami et al PNAS, Vol. 91, 6458-6462, 1994.
Recombinant agouti protein was purified from baculovirus system by Dr. Michael Ollmann in Dr. Gregory Barsh's laboratory by methods known in the art. 2×10^6 cells were seeded per 15 cm diameter dish. The medium was changed everyday, and fresh agouti protein and/or αMSH added everyday usually at 10 nM. To examine transcriptional regulation, total RNA was isolated and Northern blotting performed by methods described in Example 1. The A26 probe to the MSH-R was provided by Dr. R. Cone and is described in Mountjoy et al. Science 257:1248-1251, 1992. At the translational level, metabolic labeling was used in conjunction with immunoprecipitation as described in Example 1. Western blotting and enzyme assay was used to examine function.
First, it was determined whether the agouti protein had any effect on tyrosinase expression by Northern blotting. After 24 hours, the cells were harvested, total RNA isolated and hybridized with a probe for tyrosinase and detected by a phosphoimager. The activity of each band was measured by phosphoimager and the % control was corrected using GAPDH as a standard. […] It should be noted that in vivo, pheomelanin is synthesized within 24 hours after agouti RNA is apparent. Longer incubation times were also examined. 10 nM of agouti protein was added for 1, 2 or 4 days.
Total RNA was extracted from cells using an RNeasy total RNA isolation kit (QIAGEN, Catsworth, Calif.), following the manufacturer's instructions. 20 μg of total RNA was denatured, electrophoresed through 1.0% agarose gels, and transferred overnight at 23° C. to SureBlot nylon hybridization membranes (Oncor, Gaithersburg, Md.) in the standard manner. […]

[2] = test system: MSH receptor; experiment: Northern blotting of MSH receptor RNA in melan-a cells; settings: for RNA level of MSH receptor: 10 nM, 5 days
Method: The effects of agouti protein on expression of TRP1, TRP2, and the MSH receptor were examined.
Total RNA was extracted from cells using an RNeasy total RNA isolation kit (QIAGEN, Catsworth, Calif.), following the manufacturer's instructions. 20 μg of total RNA was denatured, electrophoresed through 1.0% agarose gels, and transferred overnight at 23° C. to SureBlot nylon hybridization membranes (Oncor, Gaithersburg, Md.) in the standard manner. Filters were prehybridized for 3 hours at 45° C. with Hybrisol I solution (Oncor, 50% formamide, 10% dextran sulfate, 1% SDS and blocking reagent), and then hybridized with a ^32P-labeled probe. […] A commercially available cDNA probe specific for glyceraldehyde-3-phospho-dehydrogenase (GAPDH) was used to standardize RNA loading on the blots. The cDNA probes were labeled using random primer extension and heated to 100° C. for 10 minutes, then cooled on ice for 10 minutes prior to adding to the hybridization solution. Hybridization was performed with the radiolabeled probes in Hybrisol I (3×10^7 cpm/10 ml) overnight at 45° C. with gentle shaking. Following the incubation, the blots were washed for 10 minutes at 23° C. with 2×SSC/10% SDS, then for 10 minutes with 0.2×SSC/0.5% SDS, and finally for 10 minutes with 0.1×SSC/0.1% SDS. The blots were then exposed in phosphoroimager cassettes at 23° C. for 1 hour and the densities of the bands were scanned using ImageQuant software. The % control for each probe was corrected for initial loading using comparison with the GAPDH standard. […] This was repeated as necessary until no remaining probe could be detected.

[3] = test system: melan-a cells; experiment: Melanin production assay on extracts of treated melan-a cells; settings: extracts of melan-a cells cultured 5 days; 10 nM
Method: Assays for melanogenic catalytic activities as described below were carried out at pH 6.8, 37° C. for 60 minutes. (1) Tyrosine hydroxylase activity was measured using the [^3H]tyrosine assay (Hearing and Ekel, 1976; Hearing, 1987). This method specifically measures the tritiated water produced during the hydroxylation of tyrosine to DOPA. (2) DOPA oxidase activity was measured using incorporation of [3-^14C]DOPA into acid-insoluble melanin as detailed previously (Aroca et al., 1993). (3) DOPAchrome tautomerase activity was measured by HPLC as the disappearance of DOPAchrome substrate and the production of DHICA rather than DHI; data are converted to pmol products by comparison with known standards. The HPLC assay was detailed previously (Palumbo et al., 1987; Tsukamoto et al., 1992). (4) DHI oxidase and DHICA oxidase activities were measured by HPLC as the disappearance of these substrates from reaction mixtures compared to controls for spontaneous auto-oxidation; data are converted to pmol by comparison with known standard (Aroca et al., 1993). (5) Melanin production was measured using incorporation of [^14C]tyrosine into acid-insoluble melanin, also as detailed previously (Hearing and Ekel, 1976; Hearing, 1987); pmol melanin produced are calculated from the radioactive product. […]

| Molecule | RNA level of tyrosinase ([1]; 10 nM) | RNA level of MSH receptor [2] | melanin production [3] [pmol/μg protein/hr] | expression of tyrosinase (RNA) ([1]; 10 nM, 2 or 4 days incubation) | expression of tyrosinase (RNA, % control corrected using GAPDH) ([1]; 24 hours, 10 nM and 1 nM) | level of RNA for the MSH receptor ([2]; 24 hours, different concentrations) |
| --- | --- | --- | --- | --- | --- | --- |
| α-melanocyte stimulating hormone [MSH, reference compound] | almost a twofold increase | no significant increase | 6.3 ± 0.5 | – | – | – |
| agouti protein: Recombinant murine agouti signal protein purified from a baculovirus expression system (protein) MDVTRLLLATLVSFLCFFTVHSHLALEETLGDDRSLRSDSSMNSLDFSSVSIVALNKKSKKISRKEAEKRKRSSKKKASMKKVARPPPPSPCVATRDSCKPPAPACCDPCASCQCRFFGSACTCRVLNPNC | nearly a fivefold decrease | no significant effect | 0.22 ± 0.0 | complete inhibition by day 2 | significant dose dependent decreases | no significant effect |
